Laboratory results published in US9650421B2, “Self-assembled nanostructures” (NORTHWESTERN UNIVERSITY, priority 2011, dated 2017).
No end group written: not given here.

Columns and labels:
1200 bp DNA fragment = experiment: Agarose gel shift assay of DNA binding; conditions: for peptide concentration at which no free DNA can be detected: 200 ng DNA in 20 μl; for peptide molecules for one molecule of DNA at full binding / peptides per base pair at full binding: at 20 μM peptide
Experimental: FIG. 6 depicts agarose gel electrophoresis of complexes of 2 and a 1200 bp DNA fragment. Each sample was prepared in a volume of 20 μl Well 1: 200 ng of 1200 bp DNA fragment; Well 2—10: 200 ng of 1200 bp DNA fragment+2 at a concentration of 2.5-5-7.5-10-15-20-25-35-45 μM.
The ability of compounds 1 and 2 to bind to nucleic acids was assayed by agarose gel shift assays where DNA was mixed with peptides 1 and 2 in different ratio. (FIG. 6). According to these studies at a peptide concentration of 20 μM, no free DNA can be detected in the sample. This corresponds to a ratio of approximately 1600 peptide molecules for one molecule of DNA, or 1.3 peptides per base pair.

[1] = tested on: double strand DNA fragments; experiment: TEM of peptide-linear double strand DNA fragment complexes; type: physicochemical; conditions: for morphology of complexes with short DNA fragments: short ds DNA fragments (150, 300 bp); for morphology of complexes with DNA fragments above 300 bp: template length above 300 bp (600, 1200 bp)
Experimental: A Complex between 1 (80 μM) and ds 150 bp DNA fragment (200 ng) in 20 μl of 25 mM Tris buffer (pH 7.4, 25 mM) B Complex between 2 (80 μM) and ds 150 bp fragment (200 ng) in 20 μl of 25 mM Tris buffer (pH 7.4, 25 mM) C Complex between 1 (80 μM) and ds 300 bp DNA fragment (200 ng) in 20 μl of 25 mM Tris buffer (pH 7.4, 25 mM) D Complex between 2 (80 μM) and ds 300 bp fragment (200 ng) in 20 μl of 25 mM Tris buffer (pH 7.4, 25 mM).
A Complex between 1 (80 μM) and ds 600 bp DNA fragment (200 ng) in 20 μl of 25 mM Tris buffer (pH 7.4, 25 mM) B Complex between 2 (80 μM) and ds 600 bp fragment (200 ng) in 20 μl of 25 mM Tris buffer (pH 7.4, 25 mM) C Complex between 1 (80 μM) and ds 1200 bp DNA fragment (200 ng) in 20 μl of 25 mM Tris buffer (pH 7.4, 25 mM) D Complex between 2 (80 μM) and ds 1200 bp fragment (200 ng) in 20 μl of 25 mM Tris buffer (pH 7.4, 25 mM).
(§1) Complexes between nucleic acid templates and molecules 1, 2 and 3 were prepared under conditions where no more free DNA could be detected by gel electrophoresis and analyzed by transmission electron microscopy (TEM).
The toroid proportion is insignificant as they are difficult to observe. Furthermore, the length of the complexes was homogenous, and around 706 nm in average. The calculated length of the PBR322 plasmid in a supercoiled conformation is 737 nm, very close to the observed dimensions. A slight shortening of the complexes can be explained by the contraction of DNA in the presence of multivalent counterions. Complexes of short double strand DNA fragments (25-1200 bp) have also been prepared and observed by TEM. (FIG. 8). The expected control of the dimensions of the complexes by template effect clearly obeys different regimes depending both of the length of the template and design of the artificial capsomers.

[2] = tested on: plasmid pBR322 DNA template; experiment: TEM of peptide-plasmid DNA complexes; type: physicochemical; conditions: peptide 80 μM, plasmid 200 ng in 20 μl 25 mM Tris buffer pH 7.4
Experimental: A Complex between 3 (80 μM) and plasmid pbr322 (200 ng) in 20 μl of 25 mM Tris buffer (pH 7.4, 25 mM) B Complex between 1 (80 μM) and plasmid pbr322 (200 ng) in 20 μl of 25 mM Tris buffer (pH 7.4, 25 mM) C Complex between 2 (80 μM) and plasmid pbr322 (200 ng) in 20 μl of 25 mM Tris buffer (pH 7.4, 25 mM).
as §1

[3] = Sedimentation velocity analytical ultracentrifugation; type: physicochemical
Experimental: Sedimentation velocity experiments were conducted in the same buffer as the equilibrium experiments. Velocity experiments were performed at 50 krpm and 23° C., scans were taken at 230 nm in intensity mode. The data were analyzed with the 2-dimensional spectrum analysis (2DSA) [Brookes et al., European Biophysics Journal 39(3): 405-414 (2010)] and time invariant noise was subtracted. 2DSA results were further refined with the genetic algorithm analysis (GA) [Brookes et al., Proceedings of the 9th annual conference on Genetic and evolutionary computation 361-368 (2007)] coupled with Monte Carlo (MC) analysis [Demeler et al., UltraScan A Comprehensive Data Analysis Software Package for Analytical Ultracentrifugation Experiments. Analytical Ultracentrifugation—Techniques and Methods. Royal Society of Chemistry: 2005]. Sedimentation coefficient distributions were calculated with the van Holde-Weischet analysis [Demeler et al., Anal. Biochem. 335(2): 279-288 (2004)].
Weight-average sedimentation coefficients determined with the 2DSA-MC and the GA-MC analysis were both 2.26 s.

[4] = Circular dichroism of the peptide (alpha-helical content); type: physicochemical
Experimental: FIG. 3 depicts circular dichroism of peptide 1 at 21 μM at pH 8 in Tris buffer.
The self-assembly of molecules 1 and 2 into mushroom-shaped nanostructures by coiled-coil formation is an aspect of the disclosure. The self-assembly of the block copolymer 1 was characterized under physiological conditions to probe its propensity to generate […] coiled-coils aggregates.

[5] = Sedimentation equilibrium analytical ultracentrifugation; type: physicochemical; design: partial specific volume: unit not given here
Experimental: The coiled-coil formation was then investigated further by analytical ultracentrifugation, which gives access to the absolute molecular weight of the aggregates in solution and subsequently their aggregation number. Equilibrium experiments were conducted at 23° C. and in 50 mM phosphate buffer containing 150 mM NaCl, pH 7.4. Three loading concentrations (18, 30 and 42 μM) were scanned at 230 nm, and sedimented to equilibrium at 20 krpm, 26.6 krpm, 33.3 krpm, and at 39.9 krpm, resulting in 12 scans which were globally fit to multiple models as described previously [Johnson et al., Biophys. J. 36(3): 575-588 (1981); Demeler et al., UltraScan A Comprehensive Data Analysis Software Package for Analytical Ultracentrifugation Experiments. Analytical Ultracentrifugation—Techniques and Methods. Royal Society of Chemistry: 2005]. The most appropriate model was chosen based on visual inspection of the residual run patterns and based on the best statistics. Statistics were evaluated with the Monte Carlo analysis implemented in UltraScan [Demeler et al., Colloid & Polymer Science 286(2): 129-137 (2008)].
A good fit was obtained when all scans were fitted globally to a single ideal species model (RMSD=7.3631e-03, see FIG. 4). A fixed molecular weight distribution model with 100 molecular weight slots between 10,000 and 50,000 Dalton provided slightly better statistics (RMSD=4.6435e-03) because of the additional degrees of freedom.
This molecular weight was consistent with a hexameric assembly of 1. […] Since both sedimentation velocity and sedimentation equilibrium experiments only measure the buoyant molecular weight of the sample, errors can be introduced when the partial specific volume is in error. The partial specific volume of 1 was not determined in an independent measurement, but it is reasonable to assume that due to the presence of the PEG2000 chain, the partial specific volume is actually higher than was estimated. The partial specific volume was therefore also fitted using the single species ideal equilibrium model, holding the molecular weight fixed at the theoretical estimate of 39,921 Daltons and determined a partial specific volume of […], which is reasonable considering the presence of the PEG2000 chain.

nucleic acid = conditions: physiological nucleic acid ligand; cited from earlier work
[6] = fixed molecular weight distribution model, Monte Carlo analysis

With “2: Coiled-coil peptide (SEQ ID NO: 1) with spermine unit and mPEG5000-maleimide conjugated to an N-terminal cysteine residue ({C(mPEG5000-maleimide)}-REGVAKALRAVANALHYNASALEEVADALQKVKM; also: spermine unit, site not given here) [compound 2]” the “peptide concentration at which no free DNA can be detected” value (1200 bp DNA fragment) was 20 µM, the “peptide molecules for one molecule of DNA at full binding” value (1200 bp DNA fragment) was “approximately 1600” and the “peptides per base pair at full binding” value (1200 bp DNA fragment) was 1.3. The “morphology of complexes with short DNA fragments” value [1] was “rodlike morphology and having predominantly the length of the DNA template”, the “morphology of complexes with DNA fragments above 300 bp” value [1] was “homogenous rods having predominantly a length corresponding to the DNA template folded in two” and the “average length of complexes with plasmid pBR322” value [2] was “around 706 nm”. For the same compound, the “morphology of complexes with plasmid pBR322” value [2] was “only filamentous complexes were observed”.
In the case of “peptide 1: Coiled-coil peptide (SEQ ID NO: 1) with C-terminal lysine-linked spermine DNA binding unit and PEG2000 carboxylic acid coupled to N-terminus ({PEG2000 carboxylic acid}-REGVAKALRAVANALHYNASALEEVADALQKVKM; not fully specified (C-terminus))”, the “peptide concentration at which no free DNA can be detected” value (1200 bp DNA fragment) is reported as 20 µM, the “peptide molecules for one molecule of DNA at full binding” value (1200 bp DNA fragment) is reported as “approximately 1600” and the “peptides per base pair at full binding” value (1200 bp DNA fragment) is reported as 1.3. The weight-average sedimentation coefficient ([3]; 2DSA-MC and GA-MC analysis) was 2.26 s, the frictional ratio ([3]; GA-MC analysis) was 1.370 and the “molecular weight of single species (94% of the signal)” value ([3]; GA-MC analysis) was 33.74 kDa. The weight-average sedimentation coefficient ([3]; van Holde-Weischet analysis, 50 krpm, 23° C.) was 2.28 s, the “morphology of complexes with short DNA fragments” value [1] was “rodlike morphology and having predominantly the length of the DNA template” and the “morphology of complexes with DNA fragments above 300 bp” value [1] was “mixture of the expected filamentous complexes of different length and toroidal complexes”. The alpha-helical content ([4]; before addition of DNA, 21 μM, pH 8, Tris buffer) was 36%, the alpha-helical content ([4]; upon addition of DNA) was 53% and the “morphology of complexes with plasmid pBR322” value [2] was “mixture of rods, branched and toroidal complexes”. The “molecular weight of the species in solution, single ideal species fit” value ([5]; 23° C., 50 mM phosphate buffer, 150 mM NaCl, pH 7.4, 18, 30 and 42 μM) was 33.38 kDa, the “oligomeric state in solution” value ([5]; concentrations between 18 and 42 μM) was “hexamer or heptameric oligomer” and the partial specific volume ([5]; fitted with single species ideal equilibrium model, molecular weight fixed at 39,921 Daltons) was 0.809. For the same compound, the Z-average molecular weight [5, 6] was 36.28 kDa, the number-average molecular weight [5, 6] was 32.34 kDa and the weight-average molecular weight [5, 6] was 34.67 kDa.
In the case of `NCCCNCCCCNCCCN` [spermine], the “binding constant to nucleic acid” value (nucleic acid) is listed as “micromolar range”.
